Data: the nanobody polyreactivity screen of Harvey et al. (2022)

Test: yeast display, Sf9 membrane polyspecificity reagent, FACS + sequencing; frameworks hold sequencing errors
Procedure, shortened: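 A synthetic nanobody library was expressed on Saccharomyces cerevisiae BJ5465 by galactose induction for 36–48 hours. The library was stained for 1 hour at 4 °C with 10% biotinylated, detergent-solubilized Sf9 membrane reagent and enriched with streptavidin microbeads before FACS. Low and high (top ~1%) gates were set on anti-HA fluorescence for expression and streptavidin fluorescence for reagent binding, and each polyreactivity label reflects the gate of origin.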

| Sequence | polyreactivity (PSR sort gate) |
| --- | --- |
| QVQLVESGGGLVQAGGSLRLSCAASGSTFPDYAMGWYRQAPGKEREFVASITWSDGSTYYADSVKGRFTISRDNAKNTVYLQMNSLKPEDTAVYYCIADYVYYYIPVVYEYDYWGQGTQVTVSS | high polyreactivity |
| QVQLVESGGGLVQAGGSLRLSCAASGSILTINAMGWYRQAPGKERELVARITISSGSTYYADSVKGRFTISRDNAKNTVYLQMNSLKPEDTAVYYCAVDTSYSDRYDYWGQGTQVTVSS | low polyreactivity |
| QVQLVESGGGLLQAGGSLRLSCAASGGIFQGNVMGWYRQAPGKERELVASIRRGGSTNYADSVKGRFTISRDNAKNTVYLQMNSLKPEDTAVYYCAARKWVGYHVWPLREYNYWGQGTQVTVSS | low polyreactivity |
| QVKILESGGGLVQAVCSLRLSCASGSTYLYAMGRYRQAPVKEREMVATISSTGSTYYADSVKGRFTISRDNAKNTVYLQMNSLKPEDTAVYYCAADVCNNGWIYGSYDEYDYWGQGTQVTVSS | high polyreactivity |
| QVQLVESGGGLVQAGGSLRLSCAASGRTFEPNDMGWYRQAPGKERELVAAISSSDGSTYYADSVKGRFTISRDNAKNTVYLQMNSLKPEDTALYYCAADAGYLYDWPYNYYYWGQGTQVTVSS | low polyreactivity |
| QVQLVETGGGLVQAGGSLRLSCAASGFIGSNTMGWYRQAPGKERELVAAISWSGGSTYYADSVKGRFTISRDNAKNTVYLQMNSLKPEDSAVYYCAARRNSRARRTFGYWGQGTQVSVSS | high polyreactivity |
| QVHLVESGGGLVQAGGSLRLSCAASGSTFGRYTMGWYRQAPGKERELVAAITSGGGSTYYADSVKGRFTISRDNAKNTVYLQMNSLKPEDTAVYYCAARSLVQDHAYGYNYWGQGTQVTVSS | low polyreactivity |
| QVQLVESGGGLVQAGGSLRLSCAASGSTFSKNTMGWYRKAPGKERELVAAITSGGSTYYADSVKGRFTISRDNAKNTVYLQMNSLKPEDTAVYYCAAGYELYYYIYKMDYWGQGTQVTVSS | high polyreactivity |
| QVQLVESGGGLVQAGGSLRLSCAASGSTFERYAMGWYRQAPGKERELVAAITWGGGSTNYADSVKGRFTISRDNAKNTVYLQMNSLKPEDTAVYYCAREWRTRIYYYWGQGTQVTVSS | low polyreactivity |
| QVQLVESGGGLVQAGGSLRLSCAASGRIFYTYAMGWYRQAPGKERELVAAITSSGGRTYYADSVKGRFTISRDNAKNTVYLQMNSLKPEVTAVYYCATRYPWGWAMNYWGQGTQVTVSS | high polyreactivity |
| QVQLVESGGGLVQAGGSLRLSCAASGFTFWRYAMGWYIQAPGKERELVAAISYSGGRTYYADSVKGRFTISRDNAKNTVYLQMNSLKPEDTAVYYCAASRVTYGGPYRDDYDYWGQGTQVTVSS | high polyreactivity |
| QVQLVESGGGLVQAGGRLRLSCAASGRTFTPYTMGWYIKAPGKEREFVAAIRTGGNTYYADSVKGRFTISRDNAKNTVYLQMNSLKPEDTAVFYCAARDRIGYRLYYWGQGTQVTVSS | high polyreactivity |
| QLQLVESGGGLVQAGGSLRLSCAASGSIFSRNAMGWYRQAPAKERELVAGISTGGSTNYADSVKGRFTISRDNAKNTVYLLMNSLKTEVTAVYYCAAPLAYEGDYWGQGTQVTVSS | low polyreactivity |
| QVQLVESGGGLVQAGGSLRLICAASGIIFDSYAMGWYSQEPGKERELVAAITSDSGRTYYADSVKGRFTISRDNAKNNVYLEMNSLKPEDTAVYYCAKRWDGPYDYWGQGTQVTVSS | low polyreactivity |
| QVQLVESGGGLVQAGGSLRLSFAASGSTFPSYAMGWYRQAPGKERELVAAITKGGSTTYADSVKGRFTISRDNAKNTVYLQMNSLKPEDTAVYYCAARYYYYYYYIRRDYWGQGTQVTVSS | low polyreactivity |
| QVQLVESGGGLVQAGGSLRLSCSASGSIFDVFAMGWYRQAPGKERELVAGISRSGGSTYYADSVKGRFTISRDNAKNTVYLQMNSLKPEDTAVYYCAARYTYYRGRYDYWGQGTQVTVSS | low polyreactivity |
| QVQLVESGGGLVQAGGSLRLSCAASGSTFIDYAMGWYRQAPGKDRELVAAITWSGSSTYYADSVKGRFTISRDNAKNTVDLQMNSLKPEDTAVYYCAARYWYQSYHTYGYYSWGQGTQVTVSS | low polyreactivity |
| QVHLEESGGGLVQAGRSLRLTCAASGRTFLWYAMGSYRQAPGKETDLVAAIRRSGGGTYYADSVKGRFTISRDNAKNSVYLQMNRLKPEDSGFFYCNSDYRGYQRGVISDGFYYWGLGTQVTVSS | low polyreactivity |
| QVQLVESGGGLVQAGGSLRLSCAASGRISDRNAMGWYRQAPGKERELVATIRSGGSTNYADSVKGRFTISPDNAMNTVYLQMNSLKPEDTAVYYCATAKLTWRSQGLDYWGQGTQVTVSS | low polyreactivity |
| QVQLVESGGGLVQAGGSLRLSCAASGRTFYDYAMGWYRQAPGKERELVASIRGSDGSTYYADSVKGRFTISRDNAKNTVYLQMNSLKPEDTEVYYCAARGFYGTNGRVYITSYYYWGQGTQVTVSS | high polyreactivity |
| QVQLVESGGGLVQAGGSLRLSCAASDAMGWYRQAPGKERELVASISNGVSTNYADSVKGRFTISRDNAKNTVYLQMNSLKPEDTAVYYCAADAKTVGRDDLYWYEVEFDYWGQGTQVTVSS | low polyreactivity |
| QVQLVESGGGLVQAGGSLRLSCAASGRTLVYYAMGWYRQAPGKERELVAAITSVGSTNYADSVKGRFTISRDNAKNTVYLQMNSLKPEDTAVYYCAADRTYRFYYTQGYEYWGQGTQVTVSS | low polyreactivity |

| Sequence | polyreactivity (PSR sort gate) |
| --- | --- |
| QVQLVEAGGRLVQAGGSLRLSCAASGSIFYRNAMGGYRQKPGKEMELVAVITRRGGRKYYADSVKGRITISRDNAKNTVYLQMNSLIPEDTAVFYCAKRGWSDYNPIDYWGQGTPVTVSS | low polyreactivity |
| QVQLVESCGGLVQARGSLRLSCAASGRTIDSYAMGWYRQAPGKERELVAAITSGVSTYYADSVKGRITISRDNATNTVYLQMNSLQPEDTSVYYCARKHAIWRGYDFWGQGTQVTVSS | low polyreactivity |
| QVQLVESGGGLVQAGGSLRLSCAPSGITFGEYAMGWYRPAPGKERELVAAISRSGGSTYADSVKGRFTISRDNAKNTVYLQMNSLKPEDTAVYYCAAYSGVGYLWFDYWGQGTQVTVSS | low polyreactivity |
| QVQLVESGGGLVQAGGSLRLSCAASGYTFTRYAMGWYRQAPGKEREFVAAITSGGGSTYYADSVKGRFTISRDNAKNTVYLQMNSLKPEDTAVYYCAATRLVSYHYPDLDSQQGGYWGQGTQVTVSS | low polyreactivity |
| QVQLVESGGVLVQAGCSLRLSCASSGITFKYYAMGRYSQAPGKEREFVAYISARGGGTYYADSVKGRFTISRDNAKNSVYLQMNSLKPEDYAVYYFNAGLIYHQLYSNLYDYWGQGTQVTVSS | high polyreactivity |
| QVQLVESGGGLVQAGGSLRLSCAASGFTFYRNTMGWYRQAPGKERELVAAISTRDGSTYYADSVKGRFTISRDNAKYTVYLPMNSLKPEDTAVYYCAVLTYRGRFEYWGQGTQVTVSS | high polyreactivity |
| QVQLVESGGGLVQAGGSLRLSCAASGIIFWWYAMGWYRQAPGKERELVAAISGTGGSTYYADSVKGRFTISRDNAKNTVYFQMNSLKPEDTAVYYCAARGKSSSYYDYDYWGQGTQVTVSS | low polyreactivity |
| QVQLVESGGGLVQAGGSLRLSCAASGNTFRWYVMGWYRQAPGKERELVAAITSSGSTTYYADSVKGRFTISRDNAKNTVYLQLNSLKPEDTAVYYCAARNYGPYDYWGQGTQVTVSS | low polyreactivity |
| QVQLVESGGGYVQAGGSLRLSCAASGSTFKGYAMGLYRQAPGKEMELVAAITWIGGSTTYADSVKGRFTISCDNAKNTVYLQMNSLKPEDTAVYYCAADNFWYFLSATEDYWGQGTQVTVSS | low polyreactivity |
| QVQLVESGGGLVQAGGSLRLSCAASGRTLVVNDMGWYRQAPGKERELVADINWSGGRTYYADSVKGRFTISRDNAKNTVYLQMNSLKPEDTAVYYCAADLSWRQYYREYDYWGQGTEVTVSS | high polyreactivity |
| QVQLVDSGGGLVQAGGSLRLSCAASGLIFAYYAMGWYRKAPGKERELVAAISSVGSTYYADSVKGRFTISRDNAKNTVYLQMNSLKPEDTSVYYCAAALYPYYWPEYNYWGQGTQVTVSS | high polyreactivity |
| QVQLVESGGGLVQAGGSLRLSCAASGRTLRSYAMGWYRQAPGKERELVAAITRTGGDTYYADSVKGRFTISRDNANNTLYLQMNSLKPEDTAVYYCAAQRYRGYDYWGQGTQVTVSS | high polyreactivity |
| QVQLVESGGGLVQAAGSLRLSCAASGLIFQNYPMGWYRQAPGKERELVARISRRGGSTYYADSVKGRFTISRDNAKNPVYLQMISLKQEDTAVYYCAAGWTRWTSKRFEYWGQGTQVTVSS | high polyreactivity |
| QVQLVESGGGLVQAGGSLRLSCAASGSTFGQYALGWYRQAPGKERELVATISSGSTYYADSVKGRFTISRDNAKNTVYLQMNSLKPEDTAVYYCAARRIHTTSSRGYYWGQGSQVTVSS | high polyreactivity |
| QVQLVESGGGVVQAGGSLRLSCAASGRIFDLYAMGWYRQAPGKERELVATISGSGGSTYYADSVKGRFTISRDNAKNTVYLQMNSLKPEDTAVYYCAAVSVSSWYDYWGQGTQVTVSS | low polyreactivity |
| QVQLVESGGGLVQAGGSLRLSCAASGLTFGIYTMGWYRQAPGKERELVAAINWIGTRTYYADSVKGRFTLSRDNAKNTVYLQMNSLKPEDTAVYYCATVIGYTKRKYDYWGQGTQVTVSS | high polyreactivity |
| QVQHVESGGGLVQAGGSLRLTCAASGITFYRYAMGWYRQATGKEREFVAAINYGGSSTRYADSVKGRFTISLDNAKNSVYLQMNSLKPEDTAVYYCAVEKRYPRRRYDYWGQGTQVTVSS | low polyreactivity |
| QVQLVESGGGLVQAGGSLRLSCAASGSTFVRNGMGWYRKAPGKERELVAAITRGGSTYYADSVKGRFTISRDNAKNTVYLQMNSLKPEDTAVYYSAKRYRGGYYYPYNYWGLGTQVTVSS | high polyreactivity |
| QVQLVESGGGLVQAGGSLRLSCAASGSTFHRNTMGWYRQAPAKERALVAGISLRGVSTYYADSVKGRFTISRDNAKNTVYLQMNSLKPEDTAVYYCAAGGPYTRNFKLGYWGQGTQVTVSS | high polyreactivity |
| QVQLVESGGGLVHAGGSLRLSCAASGSTFYYNAMGWNRPAPGKETELVARISRSGGSTYADSVKGRFTISRDNAKNTVYLQMNSLKPEDTAVYYCNADAYGTPEFTSYAVRYDYWGQGTQVTVSS | low polyreactivity |
| QVQLVESGGGLVQAGGSLRLSCAASGRTFGYNVMGWYRQAPGKERELVADITSTSSTSYADSVKGRFTISRDNAKNTVYLQMNSLTPEDTAVYYCAAYYYFFRRYSWRLSGDYWGQGTQVTVSS | low polyreactivity |
